Measured values: article PMC2840394

Target: AL-12 variable domain (VL), amyloidogenic immunoglobulin kappa light chain of the κI O18/O8 germline (human (patient AL-12))
Assay: crystal structure

stoichiometry N: 2
Substance: AL-12 variable domain (VL), amyloidogenic immunoglobulin kappa light chain of the κI O18/O8 germline (domain or fragment)
